The target of assay [1] is tail tube protein, gp7 (Vibrio phage XM1). As to the kind of experiment: cryo-EM structure; purified XM1 virions in SM buffer; 6-fold-symmetric reconstruction of the distal part of the extended tail (baseplate, part of tail tube and sheath), 3.2Å; interfaces analysed with PISA.
For assay [2], the target named is tail sheath protein, gp6 (Vibrio phage XM1). Description: cryo-EM structure; empty XM1 particles with contracted tail sheath (post-infection form); 6-fold-symmetric reconstruction, 9.1Å; models of the extended state fitted (Situs ddforge, Coot).
The target is the same in assay [3]. Description: cryo-EM structure; purified XM1 virions in SM buffer; 6-fold-symmetric reconstruction of the distal part of the extended tail (baseplate, part of tail tube and sheath), 3.2Å; interfaces analysed with PISA.
In assay [4] the target is portal protein, gp49 (Vibrio phage XM1). As to the kind of experiment: cryo-EM structure; purified XM1 virions in SM buffer; 6-fold-symmetric reconstruction of the portal and neck region and 12-fold-symmetric reconstruction of the portal, 3.6Å; interfaces analysed with PISA.
The target of assay [5] is central baseplate organization protein, gp11 (Vibrio phage XM1). As to the kind of experiment: cryo-EM structure; purified XM1 virions in SM buffer; 6-fold-symmetric reconstruction of the distal part of the extended tail (baseplate, part of tail tube and sheath), 3.2Å; interfaces analysed with PISA.
The target of assay [6] is dodecameric head completion protein, gp1 (Vibrio phage XM1). As to the kind of experiment: cryo-EM structure; purified XM1 virions in SM buffer; 6-fold-symmetric reconstruction of the portal and neck region and 12-fold-symmetric reconstruction of the portal, 3.6Å; interfaces analysed with PISA.
The target in assay [7] is tail terminator protein, gp5 (Vibrio phage XM1). The description is as above.
Assay [8] concerns the target collar spike protein, gp40 (Vibrio phage XM1). Described as above.
The target in assay [9] is hexameric head completion protein, gp4 (Vibrio phage XM1). The assay is described as above.
Assay [10] deals with major capsid protein (MCP), gp54 (Vibrio phage XM1). As to the kind of experiment: cryo-EM structure; purified XM1 virions in SM buffer; icosahedrally averaged reconstruction of the capsid, 3.2Å.
Assay [11] has as its target minor capsid protein (decoration protein, Dec), gp53 (Vibrio phage XM1). Described as above.

Among the data in article PMC10457771 are stoichiometry N values, retold here.

Where “and” joins values, the source holds several entries; their conditions need not be identical. Equal values may be shown once.

As for “tail tube protein, gp7 (natural protein)”, the stoichiometry N in assay [1] is 6.

“tail sheath protein, gp6 (natural protein)”: the stoichiometry N in assay [2] and in assay [3] was 6 in each case.

In assay [4], portal protein, gp49 (natural protein) returned a stoichiometry N of 12.

In turn, “central baseplate organization protein, gp11 (natural protein)” came in with a stoichiometry N in assay [5] of 6.

“dodecameric head completion protein, gp1 (natural protein)” gave a stoichiometry N in assay [6] of 12.

In turn, “tail terminator protein, gp5 (natural protein)” had a stoichiometry N in assay [7] of 6.

“collar spike protein, gp40 (natural protein)” registered a stoichiometry N in [8] of 3.

Regarding “hexameric head completion protein, gp4 (natural protein)”, in [9], the stoichiometry N worked out at 6.

In the case of “major capsid protein (MCP), gp54 (natural protein)”, the stoichiometry N in assay [10] is 6 and 5.

The substance “minor capsid protein (decoration protein, Dec), gp53 (natural protein)” returned a stoichiometry N in assay [11] of 3.
